The record followed here is US20240101647A1 (VIB VZW, published 2024).

The target in assay [1] is T1, monomeric human Fc-fused SARS-CoV-2_RBD-SD1 (SARS-CoV-2, UniProt P0DTC2 319-591).
Assay [2] has as its target T1, monomeric human Fc-fused …. Nature of the assay: ELISA with periplasmic extract, RBD captured by VHH72-Fc. In general terms: In an ELISA, binding on a coated surface is turned into a signal by an enzyme label.

B1: VHH3.183 (VHH)
VHH: QVQLQESGGGLVQPGGSLRLSCAASGLDYYAIGWFRQAPGKEREGLSRIESSDGSTYYADSVKGRFTISRDNTKNTVYLQMNSLKPEDTAVYYCATDPIIQGSSWYWTSWGQGTQVTVSS
By koff is commonly meant the first-order rate constant of dissociation. B1 yielded a koff in assay [1] of 0.0014 s⁻¹.

B2: VHH3.94 (VHH)
VHH: QVQLQESGGGLVQPGGSLRLSCAASGKAVSISDMGWYRQPPGKQRELVATITKSGSTNYANSAQGRFTISRDNAKSAVYLEMNSLKPEDTAVYYCNAWLPYGMGPDYYGMELWGEGTQVTVSS
In the case of B2, the binding result in assay [2] was “binds”.

B3: VHH3.89 (VHH)
VHH: QVQLQESGGGLVQPGGSLRLSCAASGFTLDYYAIGWFREVPGKEREGLSRIDSSDGSTYYADSVKGRFTISRDNTKNIVYLQMNNLKPEDTAVYYCATDPIIQGRNWYWTGWGQGTQVTVSS
As usually defined, the Kd is the free concentration of one partner at which half of the binding sites on the other are occupied at equilibrium, for simple one-to-one binding. Read a low Kd as higher affinity. The molecule B3 returned a dissociation constant (Kd) in assay [1] of 292 pM.
